Assay results from the RNAGym collection of RNA variant scans (doi:10.1073/pnas.2313332121).

B1: TPR t1 (parent)
chain: GACCAAUCUGCCCUCAGAGCUCGAGAACAUCUUCGGAUGCAGAGGAGGCAGGCUUCGGUGGCGCGAUAGCGCCAACGUCCUCAACCUCCAAUGCAUCCCACCACAUGAUGAUGCCUGAAGAGCCUUGGUUUUUUG

Variants of: B1
Test: polymerase ribozyme fitness, log enrichment relative to wild type (log ratio); higher = more active; in vitro selection for triplet polymerase activity
Summary of the method: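 Genotype fitness is the logarithm of its enrichment divided by wild-type enrichment, using inverse-variance-weighted averages of replicates. That logarithm is base 2. Enrichment was measured by Illumina sequencing of input and output libraries from one triplicate in vitro selection round, with frozen incubation at −7 °C, on PCR-built, transcribed mutant libraries of each subunit of a heterodimeric triplet polymerase ribozyme, retaining genotypes with ≥10 input reads and ≥1 read per output.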

Compared with GACCAAUCUGCCCUCAGAGCUCGAGAACAUCUGCGGAUGCAGAGGAGGCAGGCUUCGGUGGCGCGAUACCGCCAACGUCGUCAACCUCCACAGCAUCCCAUCACAUGAUGAUGCGUGAAGAGCCUUGGUUUUUUG, GACCAAUCUGCCCUCAGAGCUCGAGAACAUCUUAGGAUGCAGAGGAGGCAGGCUUCGGUGGCGCGAUAGCGCCAACGUCCUAAACCUCCAAUGCAUCCCACCACAUGAUGAAGCCUGAAGAGCCUUGGUUUUUUG is higher in “polymerase ribozyme fitness (log ratio)” value: -7.68 for the first, -2.63 for the second.

First: GACCAAUCUGCCCUCAGAGCUCGAGAACAUCUCCGGAUGCAGAGGCGGCAGGCUUCGGUGGCGCGAUAGCGCCAACGUCCUCAACCUCCAAUGCAUCCCACCACAUGAUGAUGCCUGAAGAGCCUUGGUUUUUUG
Second: GACCAAUCUGCCCUCAGAGCUCGAGAACAUCUUAGGAUGCAGAGGAGGCAGGCUUCGGUGGCGCGAUAGCGCCAACGUCUUCAACCUCCAAUGCAUCCCACCACAUGAUGAUGCCUGAAGAGCCUUUGUUUUUUG
The “polymerase ribozyme fitness (log ratio)” value of the first is lower: -6.49 for the first, -4.5 for the second.

First: GACCAAUCUGCCCUCAGAGCUCGAGAACAUCUGCGGAUGCAGAGGAGGCAGGCUUCGGUGGCGCGAUAAAGCCAACGUCCUCAACCUCCAAUGCAUCCCACCACAUGAUGUUGCCUGAAGAGCCUUGGUUUUUUG
Second: GACCAAUCUGCCCUCAGAGCUCGAGAACAUCUGGGGAUGCAGAGGAGGCAGGCUUCGGUGGCGCGAUAGCGGCAACGUCCUCAACCUCCAAUGCAUCCCACCACAUGAUAAUGCCUGAAGAGCCUUGGUUUUUUG
The “polymerase ribozyme fitness (log ratio)” value of the first is lower: -7.15 for the first, -6.68 for the second.

First: GACCAAUCUGCCCUCAGAGCUCGAGAACAUCUUAGGAUGCAGAGGAGGCAGGCUUCGGUGGCGCGAUAGCGCCAACGUCCUCAACCUACAAUGCAUCCCACCACACGAUGAUGACUGAAGAGCCUUGGUUUUUUG
Second: GACCAAUCUGCCCUCAGAGCUCGAGAACAUCUUAGGAUGCAGAGGAGGCAGGCUUCGGUGGCGCGAUAGCGCCAAAGUCCUCAACCUCCAAUGCAUCCCACCACAUGAUGAUGCCUGAAGAGCCUUGGUUUUUUG
The “polymerase ribozyme fitness (log ratio)” value of the first is lower: -6.05 for the first, -4.09 for the second.

First: GACCAAUCUGCCCUCAGAGCUCGAGAACAUCUGCGGAUGCAGAGGAGGCGGGCUUCGGUGGCGCGAUAGCGCCAACGUCCUCAACCUCCAAUGCAUCCCACCACAUGAUGAUGCCUGAAGCGCCUUGGUUUUUUG
Second: GACCAAUCUGCCCUCAGAGCUCGAGAACAUCUUAGGAUGCAGAGGAGGCAGGAUUAGGUGGCGCGAUAGCGCCAACGUCCUCAACCUCCAAUGCAUCCCACCACAUGAUGAUGCCUGAAGAGCCUUGGUUUUUUG
The “polymerase ribozyme fitness (log ratio)” value of the first is lower: -4.43 for the first, -2.66 for the second.

Compared with GACCAAUCUGCCCUCAGAGCUCGAGAACAUCUGCGGAUGCAGAGGAGGCAGGCUUCGGUGGCGCGAUAGCGCCAACGUCCUCAACCUCCAAUGCAUCCCACCACAUGAUGAUGCCUGAAGAGCCUUGGUAUUUUG, GACCAAUCUGCCCUCAGAGCUCGAGAACAUCUCCGGAUGCAGAGGAGGCAGACUUCGCUGGCGCGAUAACGCCAACGUCCUCAACCUCCAAUGCAUCCCACCAUAUGAAGGAGCCUGAAGAGCCUUGGUUUUUUG is lower in “polymerase ribozyme fitness (log ratio)” value: -5.01 for the first, -6.93 for the second.

First: GACCAAUCUGCCCUCAGAGCUCGAGAACAUCUGCGGAUGCAGAGGAGGCAGGCUUCGGUGGCGCGAUAGCGCCAACGUCCUCAACCUCCAAUGCAUCCCACCACAUGAUGAUGCCUGAAGAGCGUUGGUUUUUUG
Second: GACCAAUCUGCCCUCAGAGCUCGAGAACAUCUUAGGAUGCAGAGGAGGCAGGCUUCGGUGGCGCGAUAGCGCCCACGUCCUCAACCUCGAAUGCAUCCCACCACAUGAUGAUCCCUGCAGAGCCUUGGUUAUUUG
The “polymerase ribozyme fitness (log ratio)” value of the first is higher: -4.16 for the first, -5.57 for the second.

Going from GACCAAUCUGCCCUCAGAGCUCGAGAACAUCUCCGGAUGCAGAGGAGGCAGGCUUCGGUGGUGCGAUAGCGCCAACGUCCUCAACCUCCAAUGCAUCCCACCACAUGAUGAUGCCUGAAGAGCCUUGGUUUUUUG to GACCAAUCUGCCCUCAGAGCUCGAGAACAUCUCCGGAUGCAGAGGAGGCAGGCUUCGGUUGCGCGAUAGCGCCAACGUCCUCAACCUCCAAUGCAUCCCACCACAUGAUGAUGCCUGAAGAGCCUUGGUUUUUUG, the “polymerase ribozyme fitness (log ratio)” value rises from -5.05 to -3.44.

Compared with GACCAAUCUGCCCUCAGAGCUCGAGAACAUCUCCGGAUGCAGAGGAGGCAGGCUUCGGUCGCGCGAUAGCGCCAACGUCCUCAACCUCCAAUGCAUCCCACCACAUGAUGAUGCCUGAAGAGCCUUGGUUUUUUG, GACCAAUCUGCCCUCAGAGCUCGAGAACAUCUCCGGAUGCAGAGGAGGCAGGCUUCGGUGGCGCGAUAGCGCCAACGUCCUCAACCUCCCAUGCAUCCCACCACAUGAUGAUGCCUGAAGAGCCUUGGUUUUUUG is lower in “polymerase ribozyme fitness (log ratio)” value: -5.53 for the first, -6.14 for the second.

Going from GACCAAUCUGCCCUCAGAGCUCGAGAACAUCUGCGGAUGCAGAGGAGGCAGGCUUCGGUGGCGCGAUAUCGCCAACGUCCUCAACCUCCAAUGCAUCCCACCACAUGAUGAUGCCUGAAGAGCCUUGGUUUUUUG to GACCAAUCUGCCCUCAGAGCUCGAGAACAUCUCCGGAUGCAGAGGAGGCAGGCUUCGGUGGCGCGAUAGCGCCAACCUCCUCAACCUCCAAUGCAUCCCACCACAUGAUGAUGCCUGAAGAGCCUUGGUUUUUUG, the “polymerase ribozyme fitness (log ratio)” value falls from -2.25 to -5.05.

Going from GACCAAUCUGCCCUCAGAGCUCGAGAACAUCUUAGGAUGCAGAGGAGGCAGGAUUCGGUGGCGCGAUAGCGCCAACGUCCUCAACCUCCAAUGCAUCCCACCACAUGAUGAUGCCUGAAGAGCCUUGGUUUUUUG to GACCAAUCUGCCCUCAGAGCUCGAGAACAUCUUAGGAUGCAGAGGAGGCAGGCUUCGGUGGAGCGAUAGCGCCAACGUCCUCAACCUCCAAUGCAUCCCACCACAUGAUGAUGCCUGAAGAGCCUUGGUUUUUUG, the “polymerase ribozyme fitness (log ratio)” value falls from -2.86 to -4.45.

Compared with GACCAAUCUGCCCUCAGAGCUCGAGAACAUCUUAGGAUGCAGAGGAGGCAGGCUUCGGUGGCGCGAUAGCGCGAACGUCCUCAACCUCCAAUGCAUCCCACCACAUGAUGAUGCCUGAAAAGCGUUGGUUUUAUG, GACCAAUCUGCCCUCAGAGCUCGAGAACAUCUUAGGAUGCAGAGGAGGCAGGCUUCGGUGGCGCGAUAGCGUCAACGUCCUCAAACUCCAAUGCAUCCCACCACAUGAUGAUACCUGAAGAGCCUUGGUUUUUUG is lower in “polymerase ribozyme fitness (log ratio)” value: -1.12 for the first, -5.11 for the second.

First: GACCAAUCUGCCCUCAGAGCUCGAGAACAUCUUAGGAUGCAGAGGAGGCAGGGUUAGGUGGCGCGAUAGCGCCAACGUCCUCAACCUCCAAUGCAUCCCACCACAUGAUGAUGCCUGAAGAGCCUUGGUUUUUUG
Second: GACCAAUCUGCCCUCAGAGCUCGAGAACAUCUUAGGAUGCAGAGGAGGCAGGCUUCGGUGGCGCGAUAGCGUCAACGUCCUCAACCUCCAAUGCAUCCCACCACAUGAUGAUGCCUGAAGAGCCUUGGUUUUUUG
The “polymerase ribozyme fitness (log ratio)” value of the first is lower: -2.83 for the first, -2.58 for the second.

Going from GACCAAUCUGCCCUCAGAGCUCGAGAACAUCUGCGGAUGCAGAGGAGGCAGGCUUCGGUGGCGCGAUAGUGCCAACGUCCUCAACCUCCAAUGCAUCCCACCACAUGAUGAUGCCUGAAUAGCCUUGGUUUUUUG to GACCAAUCUGCCCUCAGAGCUCGAGAACAUCUUAGGAUGCAGAGGAGGCAGGCUUCGGUGGUGCGAUAGCGCCAACGUCCUCAAGCUCCAAUGCAUCCCACCACAUGAUGAUGCCUGAAGAGCCUUGGUCUUUUG, the “polymerase ribozyme fitness (log ratio)” value rises from -6.7 to -2.75.

Going from GACCAAUCUGCCCUCAGAGCUCGAGAACAUCUCCGGAUGCAGAGGAGGCAGGCUUCGGUGGCGCGAUAGCGCCAACGUCCUCAACCUCCAAUGCAUCCUACCACAUGAUGAUGCCUGAAGAGACUUGGUUUUUUG to GACCAAUCUGCCCUCAGAGCUCGAGAACAUCUGCGGAUUCAGAGGAGGCUGGCUUCGGUGGCGCGAUAGUGCCAACGUCCUCAUCCUCCACUGCAUCCCACCACAUGAUGAUGACUGAAGAGCCUUGGUUUUUUG, the “polymerase ribozyme fitness (log ratio)” value rises from -7.51 to -7.12.

Going from GACCAAUCUGCCCUCAGAGCUCGAGAACAUCUCCGGAUGCAGAGGAGGCAGGCUUCGGUGGUGCGAUAGCGCCAACGUCCUCAACCUCCAAUGCAUCCUACCACAUGAUGAUGCUUGAAGAGCCUUGGUUUUUUG to GACCAAUCUGCCCUCAGAGCUCGAGAACAUCUGCGGAUGCAGAGGAGGCAGCCUUCGGUGGCGGGAUAGCGCCAACGACCUCAACCUCCAAUGCAUCACACCACAUGAUGAGGCCGGAAGAGCCUUGGUUUUUUG, the “polymerase ribozyme fitness (log ratio)” value falls from -6.64 to -7.08.

Compared with GACCAAUCUGCCCUCAGAGCUCGAGAACAUCUUAGGAUGUAGAGGAGGAAGGCUUCGGUGGUGCGAUAGCGCCAACGUCCUCAACCUCCAAUGCAGCCCACCACAUGAUGAUGCCUGAAGAGCCUUGGUUUUUUG, GACCAAUCUGCCCUCAGAGCUCGAGAACAUCUGCGGAUGCAGAGGAGGCAGGCUACGGUGGCGCGAUAGCGCCAACGUCCUCAACCUCCAAUGCAUCCCACCACAUGAUGAUGCCUGAAGAGCCUUGGUUUUUUG is higher in “polymerase ribozyme fitness (log ratio)” value: -5.57 for the first, -4.84 for the second.

Going from GACCAAUCUGCCCUCAGAGCUCGAGAACAUCUGCGGAUACAGAGGAGGCAGGCUUCGGUGGCGCGAUAGCGGCAACGUCCUCAGCCUCCAAUGCAUCCCACCACAUGAUGUUGCCUGAAGAGCCUUGGUUUUUUG to GACCAAUCUGCCCUCAGAGCUCGAGAACAUCUUAGGAUGCAGAGGAGGCAGGCUUCGGUGGCGCGAUAGCGCCAACGUCCUUAACCUCCAAUGCAUGCCACCACAUGAUGAUGCCUGAAGAGCCUUGGUUUUUUG, the “polymerase ribozyme fitness (log ratio)” value rises from -6.45 to -3.48.

First: GACCAAUCUGCCCUCAGAGCUCGAGAACAUCUGCGGAUGCAGAGGAGGCAGGCUUCGGUGGCGCGAUAGCGCCAACGUCCUCAACCUCCAAUGAAUCCCACCACAUGAUGAUCCCUAAAGAGCCUUGGUUUUUUG
Second: GACCAAUCUGCCCUCAGAGCUCGAGAACAUCUGGGGAUGCAGAGGAGGCAGGCUUCGGUGGCGCGAUAGCGCCAACGUCCUCAACCUCCAAUGCAUCCCACCUCAUGAUGAUGCCUGAAGAGCCUUGGUUUUUUG
The “polymerase ribozyme fitness (log ratio)” value of the first is higher: -6.01 for the first, -6.38 for the second.

Compared with GACCAAUCUGCCCUCAGAGCUCGAGAACAUCUUAGGAUGCAGAGGAGGCAGGCUUCGGUGGCGCGAUAGCGCCAACGUCCUCAAACUCCAAUGCAUCCCACCACAUGAUGAUACCUGAAGAGCCUUGGUUUUUUG, GACCAAUCUGCCCUCAGAGCUCGAGAACAUCUUAGGAUGCAGAGGAGGCAGGCUUCGGUGGCGCGAUAGCGCCAACGUCCUCAUCCUCCAAUGCAUCCCACCACAUGAUGAUGCCUGAAGAGCCUUGGUUUUUUG is higher in “polymerase ribozyme fitness (log ratio)” value: -4.78 for the first, -2.81 for the second.

Going from GACCAAUCUGCCCUCAGAGCUCGAGAACAUCUCCGGAUGCAGAGGAGGCAGGCUUCGGUGGCGCGAUAGCGCCAACGUCCUCAACCUCCAAUGCAUCCGACCACAUGAAGAUGCCUGAAGAGCCUUGGUUUUUUG to GACCAAUCUGCCCUCAGAGCUCGAGAACAUCUCCGGAUGCAGAGGAGGCAGGCUUCGGUGGCGCGAUAGGGCCAACGUCCUCAACCUCCAAUGCAUCCCACCACAUGAUGAUGCCUGAAGAGCCUUGGUUUUUUG, the “polymerase ribozyme fitness (log ratio)” value rises from -7.26 to -6.4.
